Experimental data reported in patent publication US20170073690A1 (CEMM FORSCHUNGZENTRUM FUER MOLEKULARE MEDIZIN, published 2017).

What was measured:
SLC38A1 = biological target: T1, SLC38A1 (human, UniProt Q9H2H9 1-487); assay: TAP-LC-MS/MS, SII-HA-tagged bait, HEK293 Flp-In TREx cells
T1 construct: N-terminally SII-HA tagged bait
T1 sequence (looked up): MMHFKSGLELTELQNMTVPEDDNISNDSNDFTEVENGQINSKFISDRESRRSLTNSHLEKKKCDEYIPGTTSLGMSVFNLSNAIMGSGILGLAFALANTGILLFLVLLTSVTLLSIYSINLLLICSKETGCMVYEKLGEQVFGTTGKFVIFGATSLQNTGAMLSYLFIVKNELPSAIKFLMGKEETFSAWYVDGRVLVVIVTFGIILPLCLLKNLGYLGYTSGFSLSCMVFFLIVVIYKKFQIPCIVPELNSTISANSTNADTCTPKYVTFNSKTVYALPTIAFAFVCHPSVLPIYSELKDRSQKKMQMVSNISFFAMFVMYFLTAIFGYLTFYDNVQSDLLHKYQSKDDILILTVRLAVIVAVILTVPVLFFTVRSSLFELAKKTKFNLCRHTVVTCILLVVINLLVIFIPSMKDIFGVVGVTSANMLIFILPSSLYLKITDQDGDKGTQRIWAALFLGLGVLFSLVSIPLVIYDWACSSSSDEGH
Experimental: (§1) Tandem affinity STREP-HA purifications were performed as previously described³. In brief, cells were stimulated with doxycycline/tetracycline for 24 h to induce expression of SII-HA-tagged bait proteins. Induction of SII-HA-LAMTOR 3 was combined with 9 h starvation in serum free medium. Protein complexes were isolated by TAP using streptavidin agarose followed by elution with biotin, and a second purification step using HA-agarose beads. Proteins were eluted with 100 mM formic acid, neutralized with triethylammonium bicarbonate (TEAB) and digested with trypsin, and the peptides were analysed by LC-MS/MS.

SLC38A2 = biological target: T2, SLC38A2 (human, UniProt Q96QD8 1-506); assay: as above
T2 construct: N-terminally SII-HA tagged bait
T2 sequence (looked up): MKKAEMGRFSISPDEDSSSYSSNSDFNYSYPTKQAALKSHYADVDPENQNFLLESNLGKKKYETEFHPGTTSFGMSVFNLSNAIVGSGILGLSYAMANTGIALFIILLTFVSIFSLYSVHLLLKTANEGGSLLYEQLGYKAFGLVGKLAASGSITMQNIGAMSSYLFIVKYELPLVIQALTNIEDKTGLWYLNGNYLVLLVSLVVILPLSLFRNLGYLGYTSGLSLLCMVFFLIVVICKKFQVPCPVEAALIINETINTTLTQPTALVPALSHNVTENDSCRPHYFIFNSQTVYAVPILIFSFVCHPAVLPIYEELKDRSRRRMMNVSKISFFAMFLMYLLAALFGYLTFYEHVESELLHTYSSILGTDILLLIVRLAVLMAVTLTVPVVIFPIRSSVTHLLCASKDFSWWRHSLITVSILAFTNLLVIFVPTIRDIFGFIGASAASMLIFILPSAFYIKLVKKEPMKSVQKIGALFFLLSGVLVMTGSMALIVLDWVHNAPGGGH
Experimental: as §1

binding result (SLC38A1): no binding
binding result (SLC38A2): no binding
B1: RAGD (enzyme, human, UniProt Q9NQL2 1-400, looked up)
chain: MSQVLGKPQPQDEDDAEEEEEEDELVGLADYGDGPDSSDADPDSGTEEGVLDFSDPFSTEVKPRILLMGLRRSGKSSIQKVVFHKMSPNETLFLESTNKICREDVSNSSFVNFQIWDFPGQIDFFDPTFDYEMIFRGTGALIFVIDSQDDYMEALARLHLTVTRAYKVNTDINFEVFIHKVDGLSDDHKIETQRDIHQRANDDLADAGLEKIHLSFYLTSIYDHSIFEAFSKVVQKLIPQLPTLENLLNIFISNSGIEKAFLFDVVSKIYIATDSTPVDMQTYELCCDMIDVVIDISCIYGLKEDGAGTPYDKESTAIIKLNNTTVLYLKEVTKFLALVCFVREESFERKGLIDYNFHCFRKAIHEVFEVRMKVVKSRKVQNRLQKKKRATPNGTPRVLL
notes: Named in the results only as one of the four RAG GTPases; also called RAG GTPase D
